# Source: publication doi:10.1101/2024.05.09.593331
# pKd: −log10 of the molar value.
# Tested on: His6-Ubl1 in complex with N;Nucleocapsid (N) protein (SARS-CoV-2;SARS-CoV-2)
# Experiment: EMSA
# Conditions: 50 mM Tris-HCl pH 8, 150 mM NaCl, 5 mM CaCl2 ([…]
substance,measurement,value
5' UTR 1-245 ssRNA,pKd,8.21
